For assay [1], the target named is T1, CD3 on T cells / Jurkat cells (human, UniProt P07766 23-207; P04234 22-171; P09693 23-182).
T1 construct: whole, on cells; Native CD3 complex on CD3+ T cells isolated from normal donors or on Jurkat cells; also called human CD3; CD3+ T cells
The experiment in a line: FACS on Jurkat cells expressing CD3.

Assay [2] concerns the target T2, CD19 on NALM6 cells, Raji cells and primary B cells (human, UniProt P15391 20-556).
T2 construct: whole, on cells; Endogenous CD19 on human cell lines / donor B cells; also called NALM6 cells expressing CD19; Raji cells expressing CD19
T2 sequence (looked up): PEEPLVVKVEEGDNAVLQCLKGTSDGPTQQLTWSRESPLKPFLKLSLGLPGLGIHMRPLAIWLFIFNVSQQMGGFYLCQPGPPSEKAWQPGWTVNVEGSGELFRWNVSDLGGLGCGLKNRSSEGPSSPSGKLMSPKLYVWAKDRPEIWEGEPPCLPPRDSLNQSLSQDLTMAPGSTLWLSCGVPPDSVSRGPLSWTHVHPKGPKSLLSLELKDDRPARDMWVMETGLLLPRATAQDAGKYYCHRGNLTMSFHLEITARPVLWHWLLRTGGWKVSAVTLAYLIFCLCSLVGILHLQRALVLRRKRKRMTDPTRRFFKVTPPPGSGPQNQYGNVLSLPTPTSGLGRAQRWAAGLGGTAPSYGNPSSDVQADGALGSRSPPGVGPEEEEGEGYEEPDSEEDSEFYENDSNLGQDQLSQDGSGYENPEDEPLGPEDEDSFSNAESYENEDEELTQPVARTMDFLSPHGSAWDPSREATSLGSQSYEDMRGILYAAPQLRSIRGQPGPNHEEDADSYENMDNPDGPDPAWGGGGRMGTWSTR
The experiment in a line: FACS on primary B cells from healthy donors' PBMC (FIG. 45D). Here is the method:
(§1) To evaluate the binding affinity of the generated bispecific antibodies to NALM6 cells, Raji cells, Primary B cells, DoHH2 cells, SU-DHL-1 cells and Jurkat cells, the NALM6 cells expressing CD19, Raji cells expressing CD19, Primary B cells, DoHH2 cells expressing CD20, SU-DHL-1 cells without expressing CD19 or CD20 and Jurkat cells expressing CD3 were stained by the test antibodies and the binding affinity was determined by FACS analysis. Primary B cells were isolated from healthy donors' PBMC by human B cell enrichment Kit (Stemcell #19054). The protocol of FACS analysis is described as follows: [0933] (a) The cells from each cell line above were harvested and centrifuged at 300 g for 5 min, and the supernatant were discarded. […] (b) The cells were washed 2 times with FACS buffer. [0935] (c) Step (a) was repeated. [0936] […] [0937] (e) Step (b) was repeated and the cells were resuspended with 100 μl/well diluted secondary antibody, and incubated at 4° C. for 45 minutes in the dark. [0938] (f) Step (b) was repeated and the cells were resuspended the cells with 150 μl/well FACS buffer and kept in dark for FACS analysis.

The target in assay [3] is T2, CD19 on NALM6 cells, Raji cells and …. The experiment in a line: FACS on Raji cells expressing CD19 (FIG. 45C). Here is the method: as §1
Assay [4] shares this target. The experiment in a line: FACS on NALM6 cells expressing CD19, another experiment (FIG. 45B). Here is the method: as §1
For assay [5], the target named is T3, GPRC5D on multiple myeloma cells (human, UniProt Q9NZD1 1-345).
T3 construct: whole, on cells; Endogenous GPRC5D on multiple myeloma cell lines; also called G-protein coupled receptor family C group 5 member D; MM.1S, MOLP-8, L363, RPMI8226 cells
The experiment in a line: FACS on MM.1S cells.

For assay [6], the target named is T1, CD3 on T cells / Jurkat cells. The experiment in a line: FACS on CD3+ T cells isolated from normal donors.
Assay [7] has the same target. The experiment in a line: FACS on Jurkat cells.
Assay [8] has as its target T3, GPRC5D on multiple myeloma cells. The experiment in a line: FACS on multiple myeloma cell lines.

Broadly, the EC50 is the concentration at which the effect is half-maximal. The low end stands for higher potency in that assay, the high end for lower potency in that assay.

T3 sequence (Q9NZD1 whole entry): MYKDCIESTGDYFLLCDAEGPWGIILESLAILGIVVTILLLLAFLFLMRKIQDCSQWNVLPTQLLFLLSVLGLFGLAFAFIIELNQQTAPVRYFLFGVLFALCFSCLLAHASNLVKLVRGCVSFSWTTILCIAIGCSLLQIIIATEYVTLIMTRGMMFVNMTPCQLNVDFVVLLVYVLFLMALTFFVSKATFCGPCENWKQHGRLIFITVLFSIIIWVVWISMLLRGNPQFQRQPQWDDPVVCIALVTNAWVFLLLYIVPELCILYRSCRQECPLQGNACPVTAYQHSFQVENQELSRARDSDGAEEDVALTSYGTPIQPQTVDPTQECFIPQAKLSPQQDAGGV
T1 sequence (P07766 23-207, chain 1 of 3): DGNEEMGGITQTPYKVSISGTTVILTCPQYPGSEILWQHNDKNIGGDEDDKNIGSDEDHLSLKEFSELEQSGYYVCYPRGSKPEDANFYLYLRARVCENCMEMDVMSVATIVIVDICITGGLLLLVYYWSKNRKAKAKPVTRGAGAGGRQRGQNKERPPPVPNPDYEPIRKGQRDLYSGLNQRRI
T1 sequence (P04234 22-171, chain 2 of 3): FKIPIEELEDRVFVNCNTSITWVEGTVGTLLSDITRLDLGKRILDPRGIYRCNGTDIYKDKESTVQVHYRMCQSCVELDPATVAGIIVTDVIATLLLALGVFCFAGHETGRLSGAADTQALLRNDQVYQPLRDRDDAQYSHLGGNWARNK
T1 sequence (P09693 23-182, chain 3 of 3): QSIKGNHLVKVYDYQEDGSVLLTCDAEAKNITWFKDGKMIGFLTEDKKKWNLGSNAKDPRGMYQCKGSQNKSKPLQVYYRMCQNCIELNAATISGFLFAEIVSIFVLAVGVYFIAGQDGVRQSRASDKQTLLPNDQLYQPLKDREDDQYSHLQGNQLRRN

B1: ATG201-N55S-19B (bispecific antibody, human IgG1, kappa, L234A L235A)
heavy 1: not shown
heavy 2: QVQLQQSGAELVRPGSSVKISCKASGYAFSSYWMNWVKQRPGQGLEWIGQIWPGDGDTNYNGKFKGKATLTADESSSTAYMQLSSLASEDSAVYFCARRETTTVGRYYYAMDYWGQGTTVTVSSASTKGPSVFPLAPSSKSTSGGTAALGCLVKDYFPEPVTVSWNSGALTSGVHTFPAVLQSSGLYSLSSVVTVPSSSLGTQTYICNVNHKPSNTKVDKKVEPKSCGGGGSGGGGSEVQLVQSGAEVKKPGSSVKVSCKASGYTFSSYVIHWVRQAPGQCLEWMGYINPYSDVIKYNEKFKGRVTLTSDKSTSTAYMELSSLRSEDTAVYYCARDSYYSYDGFAYWGQGTLVTVSSGGGGSGGGGSGGGGSGGGGSEIVLTQSPDFQSVTPKEKVTITCSASSSVSYMHWYQQKPDQSPKRLIYDTSKLASGVPSRFSGSGSGTDFTLTINSLEAEDAATYYCQQWSSNPPTFGCGTKVEIKGGGGSGGGGSDKTHTCPPCPAPEAAGGPSVFLFPPKPKDTLMISRTPEVTCVVVDVSHEDPEVKFNWYVDGVEVHNAKTKPREEQYNSTYRVVSVLTVLHQDWLNGKEYKCKVSNKALPAPIEKTISKAKGQPREPQVCTLPPSREEMTKNQVSLSCAVKGFYPSDIAVEWESNGQPENNYKTTPPVLDSDGSFFLVSKLTVDKSRWQQGNVFSCSVMHEALHNHYTQKSLSLSPGK
light: not shown
notes: CD19xCD3 Fab-scFv-Fab: two C19B Fabs, anti-CD3 scFv 40E9-L2H3-N55S.H; L234A/L235A
Regarding B1, in assay [1], the binding result is given as “binds”. The EC50 in assay [2] came to 0.442 nM; in assay [3] it was 1.11 nM; in assay [4], 0.513 nM.

B2: ATG201-Y101F-19B (bispecific antibody, human IgG1, kappa, L234A L235A)
heavy 1: not shown
heavy 2: QVQLQQSGAELVRPGSSVKISCKASGYAFSSYWMNWVKQRPGQGLEWIGQIWPGDGDTNYNGKFKGKATLTADESSSTAYMQLSSLASEDSAVYFCARRETTTVGRYYYAMDYWGQGTTVTVSSASTKGPSVFPLAPSSKSTSGGTAALGCLVKDYFPEPVTVSWNSGALTSGVHTFPAVLQSSGLYSLSSVVTVPSSSLGTQTYICNVNHKPSNTKVDKKVEPKSCGGGGSGGGGSEVQLVQSGAEVKKPGSSVKVSCKASGYTFSSYVIHWVRQAPGQCLEWMGYINPYNDVIKYNEKFKGRVTLTSDKSTSTAYMELSSLRSEDTAVYYCARDSFYSYDGFAYWGQGTLVTVSSGGGGSGGGGSGGGGSGGGGSEIVLTQSPDFQSVTPKEKVTITCSASSSVSYMHWYQQKPDQSPKRLIYDTSKLASGVPSRFSGSGSGTDFTLTINSLEAEDAATYYCQQWSSNPPTFGCGTKVEIKGGGGSGGGGSDKTHTCPPCPAPEAAGGPSVFLFPPKPKDTLMISRTPEVTCVVVDVSHEDPEVKFNWYVDGVEVHNAKTKPREEQYNSTYRVVSVLTVLHQDWLNGKEYKCKVSNKALPAPIEKTISKAKGQPREPQVCTLPPSREEMTKNQVSLSCAVKGFYPSDIAVEWESNGQPENNYKTTPPVLDSDGSFFLVSKLTVDKSRWQQGNVFSCSVMHEALHNHYTQKSLSLSPGK
light: not shown
notes: CD19xCD3 Fab-scFv-Fab: two C19B Fabs, anti-CD3 scFv 40E9-L2H3-Y101F.H; L234A/L235A
On to B2, for which the binding result in assay [1] is “binds”. Moreover, the values for the EC50 in assay [2], in assay [3] and in assay [4] were 0.359 nM, 1.11 nM and 0.508 nM, respectively.

B3: ATG-Bis-40E9 (bispecific antibody)
VH: EVQLQQSGPELVKPGASVKMSCKASGYTFTSYVIHWVKQKTGQGLEWIGYFNPYNDGTKYNEEFKGKATLTSDKSSNTAYMELNSLTSDDSAVYFCARGGVRRYFDVWGAGTTVTVSS
VL: DIQMTQSPSSLSASLGERVSLTCRASQDIGSNLNWLQQEPDGTIKRLIYATFGLDSGVPKRFSGSRSGSDYSLTISSLESEDFVDYYCQQYASFPYTFGGGTKLEIK
scFv: EVQLQLSGPELVKPGASVKMSCKASGYTFSSYVIHWVKQKPGQGLEWIGYINPYNDVIKYNEKFKGKATLTSDKSSSTAYMELSSLTSEDSAVYYCARDSYYSYDGFAYWGQGTLVTVSAGGGGSGGGGSGGGGSGGGGSQIVLTQSPAIMSASPGEKVTMTCSASSSVSYMHWYQQKSGTSPKRWIYDTSKLASGVPARFSGSGSGTSYSLTISSMEAEDAATYYCQQWSSNPPTFGGGTKVEIK
notes: L234A/L235A; also called chimeric 2+1 bispecific antibody; parental antibody
B3: the binding result in assay [5] and in assay [6] was “binds” in each case.

B4: Bis-GD2-Fab2-scFv (bispecific antibody)
VH: QVQLVESGPGVVQPGRSLRISCAVSGFSVTNYGVHWVRQPPGKGLEWLGVIWAGGITNYNSAFMSRLTISKDNSKNTVYLQMNSLRAEDTAMYYCASRGGHYGYALDYWGQGTLVTVSS
VL: EIVMTQTPATLSVSAGERVTITCKASQSVSNDVTWYQQKPGQAPRLLIYSASNRYSGVPARFSGSGYGTEFTFTISSVQSEDFAVYFCQQDYSSFGQGTKLEIK
scFv: EVQLQLSGPELVKPGASVKMSCKASGYTFSSYVIHWVKQKPGQGLEWIGYINPYNDVIKYNEKFKGKATLTSDKSSSTAYMELSSLTSEDSAVYYCARDSYYSYDGFAYWGQGTLVTVSAGGGGSGGGGSGGGGSGGGGSQIVLTQSPAIMSASPGEKVTMTCSASSSVSYMHWYQQKSGTSPKRWIYDTSKLASGVPARFSGSGSGTSYSLTISSMEAEDAATYYCQQWSSNPPTFGGGTKVEIK
notes: Two anti-GD2 Fabs (humanized 3F8) and one anti-CD3 scFv (40-C12-C10-E9) joined by (GGGGS)2 linkers to CH1 of one Fab and to CH2; L234A/L235A; also called Fab-scFv-Fab GD2xCD3 bispecific antibody
With B4, in assay [6], the binding result is reported as “binds”.

B5: Bis-40E9-L2H3-Y101F.H (bispecific antibody)
VH: EVQLVQSGAEVKKPGASVKVSCKASGYTFTSYVIHWVRQAPGQGLEWMGYFNPYNDGTKYNEEFKGRVTLTSDKSTSTAYMELRSLRSDDTAVYYCARGGVRRYFDVWGQGTTVTVSS
VL: DIQMTQSPSSLSASVGDRVTITCRASQDIGSNLNWLQQKPGKAIKRLIYATFGLDSGVPSRFSGSRSGTDFTLTISSLQPEDFATYYCQQYASFPYTFGGGTKVEIK
scFv: EVQLVQSGAEVKKPGSSVKVSCKASGYTFSSYVIHWVRQAPGQCLEWMGYINPYNDVIKYNEKFKGRVTLTSDKSTSTAYMELSSLRSEDTAVYYCARDSFYSYDGFAYWGQGTLVTVSSGGGGSGGGGSGGGGSGGGGSEIVLTQSPDFQSVTPKEKVTITCSASSSVSYMHWYQQKPDQSPKRLIYDTSKLASGVPSRFSGSGSGTDFTLTINSLEAEDAATYYCQQWSSNPPTFGCGTKVEIK
notes: L234A/L235A
Consider B5, for which the binding result in assay [7] and in assay [8] was “binds” each time.

B6: Bis-40E9-L2H3-Y54G.H (bispecific antibody)
VH: EVQLVQSGAEVKKPGASVKVSCKASGYTFTSYVIHWVRQAPGQGLEWMGYFNPYNDGTKYNEEFKGRVTLTSDKSTSTAYMELRSLRSDDTAVYYCARGGVRRYFDVWGQGTTVTVSS
VL: DIQMTQSPSSLSASVGDRVTITCRASQDIGSNLNWLQQKPGKAIKRLIYATFGLDSGVPSRFSGSRSGTDFTLTISSLQPEDFATYYCQQYASFPYTFGGGTKVEIK
scFv: EVQLVQSGAEVKKPGSSVKVSCKASGYTFSSYVIHWVRQAPGQCLEWMGYINPGNDVIKYNEKFKGRVTLTSDKSTSTAYMELSSLRSEDTAVYYCARDSYYSYDGFAYWGQGTLVTVSSGGGGSGGGGSGGGGSGGGGSEIVLTQSPDFQSVTPKEKVTITCSASSSVSYMHWYQQKPDQSPKRLIYDTSKLASGVPSRFSGSGSGTDFTLTINSLEAEDAATYYCQQWSSNPPTFGCGTKVEIK
notes: L234A/L235A
Take B6: the binding result in assay [7] and in assay [8] was “binds” in each case.

B7: Bis-GD2-Fab3 (bispecific antibody, V domains shown)
VH 1: QVQLVESGPGVVQPGRSLRISCAVSGFSVTNYGVHWVRQPPGKGLEWLGVIWAGGITNYNSAFMSRLTISKDNSKNTVYLQMNSLRAEDTAMYYCASRGGHYGYALDYWGQGTLVTVSS
VL 1: EIVMTQTPATLSVSAGERVTITCKASQSVSNDVTWYQQKPGQAPRLLIYSASNRYSGVPARFSGSGYGTEFTFTISSVQSEDFAVYFCQQDYSSFGQGTKLEIK
VH 2: EVQLQLSGPELVKPGASVKMSCKASGYTFSSYVIHWVKQKPGQGLEWIGYINPYNDVIKYNEKFKGKATLTSDKSSSTAYMELSSLTSEDSAVYYCARDSYYSYDGFAYWGQGTLVTVSA
VL 2: QIVLTQSPAIMSASPGEKVTMTCSASSSVSYMHWYQQKSGTSPKRWIYDTSKLASGVPARFSGSGSGTSYSLTISSMEAEDAATYYCQQWSSNPPTFGGGTKVEIK
notes: Fab3 format of WO2019154890A1: two anti-GD2 Fabs (humanized 3F8) and one anti-CD3 Fab (40-C12-C10-E9); also called Fab3 GD2xCD3 bispecific antibody
With B7, the binding result in assay [6] is reported as “binds”.
